Biological target: T1, estrogen receptor α (ERα) (human, UniProt P03372 1-595)
T1 construct: Used as 35S-methionine-labelled protein from rabbit reticulocyte lysate, as purified recombinant ERα, and in whole-cell extract of transfected COS cells; also called NR3A1
T1 sequence (looked up): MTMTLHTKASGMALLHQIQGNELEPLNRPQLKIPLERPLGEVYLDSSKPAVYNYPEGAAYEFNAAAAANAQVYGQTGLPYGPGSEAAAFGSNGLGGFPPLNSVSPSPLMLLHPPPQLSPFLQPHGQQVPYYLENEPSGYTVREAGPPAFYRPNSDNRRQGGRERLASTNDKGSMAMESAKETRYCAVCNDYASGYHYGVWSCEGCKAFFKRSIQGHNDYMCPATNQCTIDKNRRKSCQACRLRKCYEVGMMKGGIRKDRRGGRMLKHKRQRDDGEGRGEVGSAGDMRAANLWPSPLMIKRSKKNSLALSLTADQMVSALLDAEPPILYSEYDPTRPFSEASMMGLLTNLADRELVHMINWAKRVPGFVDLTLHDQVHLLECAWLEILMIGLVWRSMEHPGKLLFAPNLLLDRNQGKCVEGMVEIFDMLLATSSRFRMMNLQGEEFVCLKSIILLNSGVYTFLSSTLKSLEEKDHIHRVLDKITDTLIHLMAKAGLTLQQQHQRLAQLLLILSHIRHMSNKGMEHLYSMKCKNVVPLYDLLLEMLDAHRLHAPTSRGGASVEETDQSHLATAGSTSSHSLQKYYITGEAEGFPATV
Experiment: GST-fusion protein binding experiment with purified recombinant ERα (data referred to Johnston 1996 thesis)

binding result: binds
B1: GST-TFIIB (other, UniProt Q00403 1-316, looked up)
chain: MASTSRLDALPRVTCPNHPDAILVEDYRAGDMICPECGLVVGDRVIDVGSEWRTFSNDKATKDPSRVGDSQNPLLSDGDLSTMIGKGTGAASFDEFGNSKYQNRRTMSSSDRAMMNAFKEITTMADRINLPRNIVDRTNNLFKQVYEQKSLKGRANDAIASACLYIACRQEGVPRTFKEICAVSRISKKEIGRCFKLILKALETSVDLITTGDFMSRFCSNLCLPKQVQMAATHIARKAVELDLVPGRSPISVAAAAIYMASQASAEKRTQKEIGDIAGVADVTIRQSYRLIYPRAPDLFPTDFKFDTPVDKLPQL
notes: not shown: glutathione S-transferase encoded by the pGEX vector
